From patent US10975365B2, “Di-enzymatic chimeric endolysin” (Government of the United States of America, as represented …, priority 2018, dated 2021)

What was measured:
[1] = test system: GAS, GBS, GCS, S. uberis, S. suis and S. mutants; assay: Bactericidal activity of ClyX-4 on streptococci; assay type: cell-based; details: 50 μg/ml; 1 h
Protocol: (a) Bactericidal effects of ClyX-3 against five strains of stationary phase S. pneumoniae. 5 μg/ml of enzymes were mixed with 10^6 bacterial cultures for 5 min. Log killing was determined through the comparisons of PBS treatment and enzymes treatment. (b) Bactericidal effects of ClyX-4 against stationary phase streptococci. 50 μg/ml of enzymes were mixed with 10^6 bacterial culture for 1 h. Log killing was determined through the comparisons of PBS treatment and enzymes treatment;
(§1) With regard to bactericidal assay, bacterial cells were diluted to 2× rich media to generate a final concentration of 5.0×10^6 CFU/ml. 100 μl of the diluted bacterial culture was added into a 96-well titration plate in triplicate and mixed with 100 μl of sterile-filtered enzymes. Plates were sealed and incubated at 37° C. for 5-60 min. After the incubation, bacterial cells were serially diluted in 10-fold increments into sterile PBS and plated on THY/TSB agar. Log killing was calculated as follows: −log[(CFU under enzyme treatment)/(CFU under PBS treatment)].
With regard to applying the design rationale to add a C′ terminal EAD such that two EADs are disposed at each side of the CBD, the process was used to engineer endolysins for increased activity. […]

[2] = test system: other streptococci strains; assay: MIC test on other streptococci strains; assay type: cell-based
Protocol: The MICs of enzymes and antibiotics were determined in a 96-well titration plate in triplicate. Briefly, the overnight pneumococcal culture was diluted with 2×THY to obtain a final concentration of 1×10^7 CFU/ml, and other bacterial species were diluted with 2-folded medium to 1×10^5 CFU/ml. 100 μl of the diluted bacterial culture was subjected into each well, mixing with the serial 2-fold diluted 100 μl of enzymes/antibiotics. PBS buffer was used as a negative control. The plates were sealed via parafilm and statically incubated at 37° C. incubator for 24 h. The MIC was defined as the lowest concentration of treatment that inhibited visible growth of the bacterium.
With regard to applying the design rationale to add a C′ terminal EAD such that two EADs are disposed at each side of the CBD, the process was used to engineer endolysins for increased activity. We created the ClyX-3, the full-length Cpl-1 with an additional C′ terminal PlyC CHAP, and ClyX-4, the full-length PlySs2 with an additional C′ terminal Cpl-1 EAD (GH25) (FIG. 4 and FIG. 6). These constructs were expressed and purified as soluble proteins.

[3] = test system: S. pneumoniae ATCC TIGR 4; assay: Bacteriolytic (turbidity reduction) assay; assay type: cell-based, Streptococcus pneumoniae; details: 5 μg/ml; OD from 1.0 to 0.2 within the first 2 min; overnight culture
Protocol: (§2) In a bacteriolytic assay, bacterial culture (stationary phase) was harvested at 5,000 for 10 min at 4° C., washed twice and resuspended in PBS buffer, pH7.4. In a 96-well titration plate, the resuspended bacterial solution was mixed 1:1 (u/u) with endolysin to a final OD600 between 0.8 to 1.0. In each run, PBS was included as a negative control. Spectrophotometric readings (OD600) were taken every 15 s over 10 min on a spectrophotometer. Vmax was calculated as the slope of the linear portion and represented the endolysins activity. All experiments were conducted in triplicate to get the standard deviation.
(§3) Bacteriolytic capacity of ClyX-1 and ClyX-1 linkers were analyzed via the turbidity reduction assay against the overnight culture of S. pneumoniae ATCC TIGR 4. Both enzymes-induced lysis of the bacterial peptidoglycan caused a decrease in OD from 1.0 to 0.2 (80%) within the first 2 min of the turbidity assay at 5 μg/ml as shown in FIG. 9a. The linkers were the only difference between these two enzymes, and the unstructured region of PlyCA GyH, PlyCA CHAP, and Cpl-1 CBD provide optimal flexibility for enzymatical activity. High lytic activity correlated with data for bacterial survival after chimera treatment. ClyX-1 sterilized cultures for 5 min, causing a decrease in TIGR 4 viability of ˜6 log, at as low as 0.5 μg/ml (FIG. 9b). […]

[4] = test system: TIGR 4; assay: Bactericidal assay (log killing), 5 min; assay type: cell-based, Streptococcus pneumoniae; details: 0.5 μg/ml
Protocol: as §1
as §3, with “9b). Stability of ClyX-1 at different temperature and pH was surveyed to determine optimal conditions.” for “9b).”

[5] = test system: stationary phase S. pneumoniae TIGR 4; assay: Temperature stability and pH optimum of ClyX-1 by turbidity reduction assay; assay type: cell-based, Streptococcus pneumoniae
Protocol: as §2
The optimal biochemical conditions for ClyX-1 against stationary phase S. pneumoniae TIGR 4 were determined using the turbidity reduction assay described above. For temperature stability, ClyX-1 was incubated at indicated temperatures (4° C., 16° C., 25° C., 37° C., 45° C., 55° C., or 65° C.)/tsb for 30 min, recovered on ice for 5 min, and subjected to the spectrophotometric analysis. For optimal pH condition, pneumococci TIGR 4 were suspended in 40 mM boric acid/phosphoric acid (BP) buffer, pH 3-10, and were challenged against ClyX-1.

[6] = test system: S. pneumoniae strains; assay: Antimicrobial spectrum of ClyX-1 by turbidity reduction assay, pneumococci; assay type: cell-based, Streptococcus pneumoniae; details: 14 most frequent serotypes, Lyt 4.4, R36A and R6; 5 μg/ml, 10 min
Protocol: (§4) (b) Bactericidal effects of ClyX-1 against stationary phase S. pneumoniae R6. Different concentrations of ClyX-1 were mixed with 10^6 overnight bacterial culture for 5 min. Log killing was determined through the comparisons of PBS treatment and ClyX-1 treatment. (c)-(d) Biochemical characterization of ClyX-1. The effects of temperature stability (c) and pH (d) were evaluated. […] of ClyX-1 was assayed for lytic activity via turbidity reduction assay against stationary phase S. pneumoniae TIGR 4 cells for 10 min. Values were presented as percentage of lytic activity in a relation to activity observed for pH 7 and 37° C. (e) The host range of ClyX-1. Multiple strains of streptococci were tested for susceptibility. The bacterial cells were washed twice and resuspended in PBS to a final OD600 of 0.9-1.0. The changes of OD600 were presented after treating with […] of ClyX-1 for 10 min;
(§5) In a bacteriolytic assay, bacterial culture (stationary phase) was harvested at 5,000 for 10 min at 4° C., washed twice and resuspended in PBS buffer, pH7.4. In a 96-well titration plate, the resuspended bacterial solution was mixed 1:1 (u/u) with endolysin to a final OD600 between 0.8 to 1.0. […] Spectrophotometric readings (OD600) were taken every 15 s over 10 min on a spectrophotometer. Vmax was calculated as the slope of the linear portion and represented the endolysins activity. […]

[7] = test system: other streptococci; assay: Antimicrobial spectrum of ClyX-1 by turbidity reduction assay, other streptococci; assay type: cell-based; details: 5 μg/ml, 10 min
Protocol: as §4, §5

[8] = test system: S. pneumoniae D39; assay: Bactericidal assay on D39, ClyX-1 compared with Cpl-1 and PlyCA; assay type: cell-based, Streptococcus pneumoniae
Protocol: (§6) (a) Different concentrations of ClyX-1 and Cpl-1 were mixed with 10^6 overnight S. pneumoniae D39 culture for 5 min. The cells were then serial diluted and plated on the THY plates. Log killing was determined through the comparisons of PBS treatment and the enzymes treatment. (b) Female BALB/c mice were injected intraperitoneally with pneumococcus strain S. pneumoniae NS26 at a single dose at 2.95×10^7 colony forming units (CFU) per mouse. One hour after the infection, mice were intraperitoneally received a single dose of different treatments in different amount per mouse. The lines represent the percentage survival of mice for 10 days. The data was plotted as Kaplan-Meier survival curves and analyzed via the Log-rank (Mantel-Cox) test (*P<0.001; **P<0.0001);
as §1
Bactericidal assays were repeated using the three lysins at different concentrations (0.5 μg/ml to 50 μg/ml) on a different strain, D39 (FIG. 10a).

[9] = test system: S. pneumoniae NS26; assay: Mouse systemic infection model, survival; assay type: in vivo, female BALB/c mice; details: 10 days
Protocol: as §6
With regard to in vivo mouse infection models, mouse infection experiments were carried out in an ABSL-2 lab. In the mouse systemic infection model, female BALB/c mice (6-8 weeks old) were injected intraperitoneally with S. pneumoniae NS26 at a single dose of 2.95×10^7 CFU/mouse and divided randomly into multiple groups. Bacterial burden in blood and organs in mice 1 h post-infected were confirmed by plating on THY agar as described previously. One hour post-infection, these groups intraperitoneally received a single dose of 20, 40, or 80 μg/mouse of […] (n=10); 20, 40, or 80 μg/mouse of Cpl-1 (n=10); 100 μg/mouse of penicillin G (n=10); or an equal volume of PBS buffer (n=10). The survival data for all groups were recorded for 10 days.
To validate the in vitro bactericidal activity of ClyX-1, we applied a mouse systemic infection model to test the in vivo efficacy of the enzyme. Mice were challenged to a 2-days lethal-dose of 2.95×10^7 CFU. One hour after infection, the mice were intraperitoneally injected a single dose containing different amount of either ClyX-1 or Cpl-1 ranging from 20 μg-80 μg. The antibiotics control was 100 μg/mouse of penicillin G, and the negative control was as PBS, pH7.4 buffer. The mice were then observed and recorded for the survival data. All the mice treated with PBS buffer died within the first 2 days.

[10] = incubated 30 min at indicated temperature before assay

B1: ClyX-4: the full-length PlySs2 with an additional C′ terminal Cpl-1 EAD (GH25); Seq. ID No. 22 (protein)
chain: MTTVNEALNNVRAQVGSGVSVGNGECYALASWYERMISPDATVGLGAGVGWVSGAIGDTISAKNIGSSYNWQANGWTVSTSGPFKAGQIVTLGATPGNPYGHVVIVEAVDGDRLTILEQNYGGKRYPVRNYYSAASYRQQVVHYITPPGTVAQSAPNLAGSRSYRETGTMTVTVDALNVRRAPNTSGEIVAVYKRGESFDYDTVIIDVNGYVWVSYIGGSGKRNYVATGATKDGKRFGNAWGTFKMVKKNDLFVDVSSHNGYDITGILEQMGTTNTIIKISESTTYLNPCLSAQVEQSNPIGFYHFARFGGDVAEAEREAQFFLDNVPMQVKYLVLDYEDDPSGDAQANTNACLRFMQMIADAGYKPIYYSYKPFTHDNVDYQQILAQFPNSLWIAGYGLNDGTANFEYFPSMDGIRWWQYSSNPFDKNIVLLDDEEDDKPKTAGTWKQDSKGWWFRRNNGSFPY
modifications: Bacteriophage
notes: the full-length PlySs2 with an additional C′ terminal Cpl-1 EAD (GH25); ID No. 22
bactericidal activity compared with PlySs2 [1]: more active than PlySs2
activity by MIC compared with parental endolysin and ClyX-2 [2]: better than parental endolysins

B2: ClyX-1: chimeric endolysin, Seq. ID No. 17: Cpl-1 CBD fused between GyH and CHAP catalytic domains of PlyCA (protein)
chain: MSKKYTQQQYEKYLAQPANNTFGLSPQQVADWFMGQAGARPVINSYGVNASNLVSTYIPKMQEYGVSYTLFLMYTVFEGGGAGNWINHYMYDTGSNGLECLEHDLQYIHGVWETYFPPALSAPECYPATEDNAGALDRFYQSLPGRTWGDVMIPSTMAGNAWVWAYNYCVNNQGAAPLVYFGNPYDSQIDSLLAMGADPFTGGSIMEEDDKPKTAGTWKQDSKGWWFRRNNGSFPYNKWEKIGGVWYYFDSKGYCLTSEWLKDNEKWYYLKDNGAMATGWVLVGSEWYYMDDSGAMVTGWVKYKNNWYYMTNERGNMVSNEFIKSGKGWYFMNTNGELADNPSFTKEPDGLITVAGSDRVAANLANAQAQVGKYIGDGQCYAWVGWWSARVCGYSISYSTGDPMLPLIGDGMNAHSIHLGWDWSIANTGIVNYPVGTVGRKEDLRVGAIWCATAFSGAPFYTGQYGHTGIIESWSDTTVTVLEQNILGSPVIRSTYDLNTFLSTLTGLITFK
modifications: Bacteriophage
notes: ID No. 17: Cpl-1 CBD fused between GyH and CHAP catalytic domains of PlyCA
decrease in OD in turbidity assay [3]: 80%
decrease in viability [4]: ~6 log
optimal pH condition ([5]; BP buffer pH 3-10): 6.5
pH above which activity is lost (protein precipitation) ([5]; BP buffer pH 3-10): above 8
pH below which activity is lost (protein precipitation) ([5]; BP buffer pH 3-10): below 4
temperature above which the activity rapidly dropped [5, 10]: above 45 °C
temperature below which the enzyme was stable with highest activity [5, 10]: below 37 °C
susceptibility of all tested pneumococcal strains [6]: susceptible
lysis of other streptococci [7]: lysis of no other streptococci tested
fold increase in activity in vitro against S. pneumoniae compared to the parental enzyme ([8]; versus parental Cpl-1): ~100 fold
concentration at which the bacteria culture was sterilized ([8]; within 5 min, tested 0.5 to 50 μg/ml): ≤ 0.5 µg/mL
mice rescued (survival) ([9]; 20 μg single i.p. dose 1 h after infection): 30%
mice rescued (survival) ([9]; 40 μg single i.p. dose 1 h after infection): 40%
mice rescued (survival) ([9]; 80 μg single i.p. dose 1 h after infection): 80%
